Assay results: article PMC6720645, “Structural and Functional Properties of the Capsid Protein of Dengue and Related Flavivirus” (International Journal of Molecular Sciences, 2019)

Target: the molecule itself
Test: time-resolved fluorescence anisotropy

B1: Dengue virus serotype 2 capsid protein (natural protein)
chain: MNNQRKKARNTPFNMLKRERNRVSTVQQLTKRFSLGMLQGRGPLKLFMALVAFLRFLTIPPTAGILKRWGTIKKSKAINVLRGFRKEIGRMLNILNRRRR
notes: also called DENV C; C protein
B1: binds.
